# In US9011842:
# Values joined by “and” are separate entries in the source; they are usually repeats but may differ in a detail not shown here. Equal values may be shown once.
# T1: 33-mer peptide fragment of α-gliadin, LQLQPFPQPQLPYPQPQLPYPQPQLPYPQPQPF (SEQ ID NO:1)
# T1 chain: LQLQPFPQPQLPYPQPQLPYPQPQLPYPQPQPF
# B1: proteinase K (protein)
# chain: AAQTNAPWGLARISSTSPGTSTYYYDESAGQGSCVYVIDTGIEASHPEFEGRAQMVKTYYYSSRDGNGHGTHCAGTVGSRTYGVAKKTQLFGVKVLDDNGSGQYSTIIAGMDFVASDKNNRNCPKGVVASLSLGGGYSSSVNSAAARLQSSGVMVAVAAGNNNADARNYSPASEPSVCTVGASDRYDRRSSFSNYGSVLDIFGPGTSILSTWIGGSTRSISGTSMATPHVAGLAAYLMTLGKTTAASACRYIADTANKGDLSNIPFGTVNLLAYNNYQA
# B2: Carboxypeptidase Y derived from Saccharomyces cerevisiae (protein)
# chain: KIKDPKILGIDPNVTQYTGYLDVEDEDKHFFFWTFESRNDPAKDPVILWLNGGPGCSSLTGLFFELGPSSIGPDLKPIGNPYSWNSNATVIFLDQPVNVGFSYSGSSGVSNTVAAGKDVYNFLELFFDQFPEYVNKGQDFHIAGESYAGHYIPVFASEILSHKDRNFNLTSVLIGNGLTDPLTQYNYYEPMACGEGGEPSVLPSEECSAMEDSLERCLGLIESCYDSQSVWSCVPATIYCNNAQLAPYQRTGRNVYDIRKDCEGGNLCYPTLQDIDDYLNQDYVKEAVGAEVDHYESCNFDINRNFLFAGDWMKPYHTAVTDLLNQDLPILVYAGDKDFICNWLGNKAWTDVLPWKYDEEFASQKVRNWTASITDEVAGEVKSYKHFTYLRVFNGGHMVPFDVPENALSMVNEWIHGGFSL
# B3: Oryzin (protein)
# chain: GLTTQKSAPWGLGSISHKGQQSTDYIYDTSAGEGTYAYVVDSGVNVDHEEFEGRASKAYNAAGGQHVDSIGHGTHVSGTIAGKTYGIAKKASILSVKVFQGESSSTSVILDGFNWAANDIVSKKRTSKAAINMSLGGGYSKAFNDAVENAFEQGVLSVVAAGNENSDAGQTSPASAPDAITVAAIQKSNNRASFSNFGKVVDVFAPGQDILSAWIGSSSATNTISGTSMATPHIVGLSLYLAALENLDGPAAVTKRIKELATKDVVKDVKGSPNLLAYNGNA
# B4: papain (protein)
# chain: IPEYVDWRQKGAVTPVKNQGSCGSCWAFSAVVTIEGIIKIRTGNLNEYSEQELLDCDRRSYGCNGGYPWSALQLVAQYGIHYRNTYPYEGVQRYCRSREKGPYAAKTDGVRQVQPYNEGALLYSIANQPVSVVLEAAGKDFQLYRGGIFVGPCGNKVDHAVAAVGYGPNYILIKNSWGTGWGENGYIRIKRGTGNSYGVCGLYTSSFYPVKN
# B5: Neutral protease II (protein)
# chain: TEVTDCKGDAESSLTTALSNAAKLANQAAEAAESGDESKFEEYFKTTDQQTRTTVAERLRAVAKEAGSTSGGSTTYHCNDPYGYCEPNVLAYTLPSKNEIANCDIYYSELPPLAQKCHAQDQATTTLHEFTHAPGVYQPGTEDLGYGYDAATQLSAQDALNNADSYALYANAIELKC
# Biological target: T1, 33-mer peptide fragment of α-gliadin, …
protein,measurement,value
B1,"hydrolysis of the 33-mer peptide (HPLC-MS), 15 hours, SIF pH 6.8","at intestinal conditions (pH≈6.8), proteinase K did not hydrolyze most of the 33-mer peptide"
B2,"digestion of the 33-mer peptide (HPLC-MS), in vitro gastrointestinal model with pepsin, trypsin and chymotrypsin present","GDEP-M, CPY, and the combination of GDEP-M and CPY efficiently digested the 33-mer peptide in the artificial gastrointestinal condition"
same,"hydrolysis of the 33-mer peptide (HPLC-MS and ELISA), pH 5.0","CPY, MX-PEP, and AN-PEP hydrolyze the 33-mer peptide. AN-PEP appears to have the strongest activity against the 33-mer peptide, followed by CPY and then MX-PEP"
same,"hydrolysis of the 33-mer peptide (HPLC-MS), 4 hours, SIF pH 6.8",CPY efficiently hydrolyzed the 33-mer peptide and residual peptides were approximately 20 amino acids in length
same,"hydrolysis of the 33-mer peptide (HPLC-MS), 4 hours, buffer pH 4.0 to 7.0",CPY completely hydrolyzed the 33-mer peptide at acidic pH
same,"percent of the 33-mer peptide digested (ELISA), in vitro gastrointestinal model with pepsin, trypsin and chymotrypsin present",CPY alone digested about 95% of the 33-mer peptide
B3,"degradation of the 33-mer peptide (ELISA of intact 33-mer), 0.1 mg/ml enzyme, SIF pH 6.8",Oryzin alone did not degrade the 33-mer peptide
same,"degradation of the 33-mer peptide (ELISA), 60 min, SIF pH 6.8, lowest enzyme concentrations","Oryzin, at the lowest concentrations, did not degrade the 33-mer peptide"
same,"percent of the 33-mer peptide degraded (ELISA), 60 min, SIF pH 6.8, 0.4 mg/ml and 0.8 mg/ml enzyme","at higher concentrations (0.4 mg/ml and 0.8 mg/ml), Oryzin degraded about 10% to about 20% of the 33-mer peptide"
B4,"hydrolysis of the 33-mer peptide (HPLC-MS), 1 hour, pH 4.5",Papain completely hydrolyzed the 33-mer peptide at a pH of about 4.5
B5,"degradation of the 33-mer peptide (ELISA of intact 33-mer), 0.1 mg/ml enzyme, SIF pH 6.8",NP I and NP II each exhibited a limited ability to degrade the 33-mer peptide
same,"percent of the 33-mer peptide degraded (ELISA), 60 min, SIF pH 6.8",NP II alone degraded about 20% to about 30% of the 33-mer peptide
